# Experimental data from patent US20070191277.
# T1: rPAI-1Δ23 (recombinant truncated porcine plasminogen activator inhibitor-1 isoform; RCL deleted, heparin-binding domain deleted)
# T1 chain: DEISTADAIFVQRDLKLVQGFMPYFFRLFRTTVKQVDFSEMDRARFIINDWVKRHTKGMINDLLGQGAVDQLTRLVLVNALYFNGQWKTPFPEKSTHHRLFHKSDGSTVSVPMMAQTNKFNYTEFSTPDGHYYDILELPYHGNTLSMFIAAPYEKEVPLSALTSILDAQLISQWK
# T2: rPAI-123 (recombinant truncated porcine plasminogen activator inhibitor-1 isoform; RCL deleted, partial deletion of the heparin-binding domain)
# T2 chain: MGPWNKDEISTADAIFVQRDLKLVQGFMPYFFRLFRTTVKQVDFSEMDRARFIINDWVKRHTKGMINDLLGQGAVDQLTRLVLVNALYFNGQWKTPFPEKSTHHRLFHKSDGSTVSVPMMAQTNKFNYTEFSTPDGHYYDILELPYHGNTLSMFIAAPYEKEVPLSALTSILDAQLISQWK
# B1: plasminogen (protein)
# chain: EPLDDYVNTQGASLFSVTKKQLGAGSIEECAAKCEEDEEFTCRAFQYHSKEQQCVIMAENRKSSIIIRMRDVVLFEKKVYLSECKTGNGKNYRGTMSKTKNGITCQKWSSTSPHRPRFSPATHPSEGLEENYCRNPDNDPQGPWCYTTDPEKRYDYCDILECEEECMHCSGENYDGKISKTMSGLECQAWDSQSPHAHGYIPSKFPNKNLKKNYCRNPDRELRPWCFTTDPNKRWELCDIPRCTTPPPSSGPTYQCLKGTGENYRGNVAVTVSGHTCQHWSAQTPHTHNRTPENFPCKNLDENYCRNPDGKRAPWCHTTNSQVRWEYCKIPSCDSSPVSTEQLAPTAPPELTPVVQDCYHGDGQSYRGTSSTTTTGKKCQSWSSMTPHRHQKTPENYPNAGLTMNYCRNPDADKGPWCFTTDPSVRWEYCNLKKCSGTEASVVAPPPVVLLPDVETPSEEDCMFGNGKGYRGKRATTVTGTPCQDWAAQEPHRHSIFTPETNPRAGLEKNYCRNPDGDVGGPWCYTTNPRKLYDYCDVPQCAAPSFDCGKPQVEPKKCPGRVVGGCVAHPHSWPWQVSLRTRFGMHFCGGTLISPEWVLTAAHCLEKSPRPSSYKVILGAHQEVNLEPHVQEIEVSRLFLEPTRKDIALLKLSSPAVITDKVIPACLPSPNYVVADRTECFITGWGETQGTFGAGLLKEAQLPVIENKVCNRYEFLNGRVQSTELCAGHLAGGTDSCQGDSGGPLVCFEKDKYILQGVTSWGLGCARPNKPGVYVRVSRFVTWIEGVMRNN
# What was measured:
# [1] = biological target: T1, rPAI-1Δ23 (recombinant truncated …)
# [2] = biological target: T2, rPAI-123 (recombinant truncated porcine …)
protein,measurement,setting,value
B1,plasminogen cleavage (immunoblot probed for mini-plasminogen),[1],"the rPAI-1Δ23 protein did not cleave plasminogen, even when increasing concentrations of the recombinant protein were added"
same,plasminogen cleavage (immunoblot probed for mini-plasminogen),[2],the rPAI-123 recombinant protein cleaves plasminogen
